Results: patent US12467929

Legend:
[1] = biological target: recombinant UBE3A protein (Homo sapiens (Human)) (UniProt Q05086); test: Simoa; capture GTX; SBG 75 pm; UBE3A 0.00128 ng/ml
[2] = biological target: recombinant UBE3A protein (Homo sapiens (Human)) (UniProt Q05086); test: Simoa; capture GTX; SBG 100 pm; UBE3A 0.00640 ng/ml
[3] = biological target: recombinant UBE3A protein (Homo sapiens (Human)) (UniProt Q05086); test: Simoa; capture GTX; SBG 100 pm; UBE3A 0.800 ng/ml
[4] = biological target: recombinant UBE3A protein (Homo sapiens (Human)) (UniProt Q05086); test: Simoa; capture GTX; 3E5 0.4 ug/ml; UBE3A 20.0 ng/ml
[5] = biological target: recombinant UBE3A protein (Homo sapiens (Human)) (UniProt Q05086); test: Simoa; capture GTX + helper beads; 3E5 0.4 ug/ml; UBE3A 0.800 ng/ml
[6] = biological target: recombinant UBE3A protein (Homo sapiens (Human)) (UniProt Q05086); test: Simoa head-to-head, Table 11; capture GTX; UBE3A 20.0 ng/ml
[7] = biological target: recombinant UBE3A protein (Homo sapiens (Human)) (UniProt Q05086); test: Simoa; capture GTX; SBG 150 pm; UBE3A 0.00640 ng/ml
[8] = biological target: recombinant UBE3A protein (Homo sapiens (Human)) (UniProt Q05086); test: Simoa; capture GTX + helper beads; 3E5 0.1 ug/ml; UBE3A 4.00 ng/ml
[9] = biological target: recombinant UBE3A protein (Homo sapiens (Human)) (UniProt Q05086); test: Simoa head-to-head, Table 10; capture MS 2F6; UBE3A 0.80 ng/ml
[10] = biological target: recombinant UBE3A protein (Homo sapiens (Human)) (UniProt Q05086); test: Simoa; capture GTX; 3E5 0.4 ug/ml; UBE3A 0.160 ng/ml
[11] = biological target: recombinant UBE3A protein (Homo sapiens (Human)) (UniProt Q05086); test: Simoa; capture GTX + helper beads; 3E5 0.2 ug/ml; UBE3A 0.160 ng/ml
[12] = biological target: recombinant UBE3A protein (Homo sapiens (Human)) (UniProt Q05086); test: Simoa; capture GTX, no helper beads; 3E5 0.2 ug/ml; UBE3A 0.0320 ng/ml
[13] = biological target: recombinant UBE3A protein (Homo sapiens (Human)) (UniProt Q05086); test: Simoa; capture GTX; 3E5 0.2 ug/ml; UBE3A 20.0 ng/ml
[14] = biological target: recombinant UBE3A protein (Homo sapiens (Human)) (UniProt Q05086); test: Simoa; capture GTX, no helper beads; 3E5 0.1 ug/ml; UBE3A 20.0 ng/ml
[15] = biological target: recombinant UBE3A protein (Homo sapiens (Human)) (UniProt Q05086); test: Simoa; capture GTX + helper beads; 3E5 0.2 ug/ml; UBE3A 0.800 ng/ml
[16] = biological target: recombinant UBE3A protein (Homo sapiens (Human)) (UniProt Q05086); test: Simoa; capture GTX; SBG 150 pm; UBE3A 0.00128 ng/ml
[17] = biological target: recombinant UBE3A protein (Homo sapiens (Human)) (UniProt Q05086); test: Simoa; capture GTX; 3E5 0.8 ug/ml; UBE3A 0.800 ng/ml
[18] = biological target: recombinant UBE3A protein (Homo sapiens (Human)) (UniProt Q05086); test: Simoa head-to-head, Table 11; capture MS 2F6; UBE3A 0.16 ng/ml
[19] = biological target: recombinant UBE3A protein (Homo sapiens (Human)) (UniProt Q05086); test: Simoa; capture GTX + helper beads; 3E5 0.1 ug/ml; UBE3A 0.160 ng/ml
[20] = biological target: recombinant UBE3A protein (Homo sapiens (Human)) (UniProt Q05086); test: Simoa; capture GTX; 3E5 0.2 ug/ml; UBE3A 0.800 ng/ml

Sequence of UniProt Q05086 (Q05086 whole entry): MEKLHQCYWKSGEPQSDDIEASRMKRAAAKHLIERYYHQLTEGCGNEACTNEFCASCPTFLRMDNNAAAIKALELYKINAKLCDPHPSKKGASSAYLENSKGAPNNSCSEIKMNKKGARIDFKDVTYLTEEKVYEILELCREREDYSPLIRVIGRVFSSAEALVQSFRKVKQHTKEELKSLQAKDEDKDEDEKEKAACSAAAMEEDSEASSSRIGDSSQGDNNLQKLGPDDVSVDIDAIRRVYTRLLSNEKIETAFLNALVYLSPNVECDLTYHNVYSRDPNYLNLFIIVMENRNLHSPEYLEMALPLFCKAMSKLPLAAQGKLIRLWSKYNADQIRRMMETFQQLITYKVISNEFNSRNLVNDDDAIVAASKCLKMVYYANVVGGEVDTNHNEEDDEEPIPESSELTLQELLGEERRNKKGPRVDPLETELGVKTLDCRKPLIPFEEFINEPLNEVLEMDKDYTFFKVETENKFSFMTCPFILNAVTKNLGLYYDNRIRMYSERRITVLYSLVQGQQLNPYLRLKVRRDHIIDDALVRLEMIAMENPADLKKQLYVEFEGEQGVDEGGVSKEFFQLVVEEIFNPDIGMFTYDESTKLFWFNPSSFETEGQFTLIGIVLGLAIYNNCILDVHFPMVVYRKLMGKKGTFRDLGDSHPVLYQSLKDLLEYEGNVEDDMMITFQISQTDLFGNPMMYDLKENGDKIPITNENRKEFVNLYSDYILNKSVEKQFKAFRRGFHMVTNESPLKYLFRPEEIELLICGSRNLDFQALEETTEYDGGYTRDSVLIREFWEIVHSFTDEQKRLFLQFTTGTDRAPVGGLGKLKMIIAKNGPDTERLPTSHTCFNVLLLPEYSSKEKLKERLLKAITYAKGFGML

For “anti-UBE3A antibody 3E5 (SAB1404508-100 ug, Millipore-Sigma)”, the AEB1 [1] was 0.0046, the AEB2 [1] was 0.0045 and the AEB3 [1] was 0.0047. The Average AEB [1] was 0.0046, the Signal to Background [1] was 1.06 and the AEB1 [2] was 0.0098. For the same substance, the AEB2 [2] was 0.0098, the AEB3 [2] was 0.0111 and the Average AEB [2] was 0.0103. The Signal to Background [2] was 1.22, the AEB1 [3] was 0.21 and the AEB2 [3] was 0.214. The AEB3 [3] was 0.211, the Average AEB [3] was 0.212 and the Signal to Background [3] was 25.3. The AEB1 [4] was 6.82, the AEB2 [4] was 7.9 and the AEB3 [4] was 7.67. It also gave an Average AEB [4] of 7.46, a Signal to Background [4] of 119 and an AEB1 [5] of 0.341. It also gave an AEB2 [5] of 0.333, an Average AEB [5] of 0.337 and a Signal to Background [5] of 17.2. For the same substance, the AEB1 [6] was 0.78, the AEB2 [6] was 0.821 and the Ave AEB [6] was 0.8. The Signal to Background [6] was 97.8, the AEB1 [7] was 0.0136 and the AEB2 [7] was 0.0149. For the same substance, the AEB3 [7] was 0.014, the Average AEB [7] was 0.0142 and the Signal to Background [7] was 1.07. The AEB1 [8] was 0.639, the AEB2 [8] was 0.606 and the Average AEB [8] was 0.623. The Signal to Background [8] was 109, the AEB1 [9] was 0.0353 and the AEB2 [9] was 0.037. It also gave an Ave AEB [9] of 0.0361, a Signal to Background [9] of 2.67 and an AEB1 [10] of 0.172. The AEB2 [10] was 0.165, the AEB3 [10] was 0.174 and the Average AEB [10] was 0.171. For the same substance, the Signal to Background [10] was 2.72, the AEB1 [11] was 0.0751 and the AEB2 [11] was 0.0703. For the same substance, the Average AEB [11] was 0.0727, the Signal to Background [11] was 7.51 and the AEB1 [12] was 0.0229. The AEB2 [12] was 0.0244, the Average AEB [12] was 0.0236 and the Signal to Background [12] was 2.44. It also gave an AEB1 [13] of 6.38, an AEB2 [13] of 6.95 and an AEB3 [13] of 6.77. For the same substance, the Average AEB [13] was 6.7, the Signal to Background [13] was 171 and the AEB1 [14] was 3.57. It also gave an AEB2 [14] of 3.21, an Average AEB [14] of 3.39 and a Signal to Background [14] of 592. The AEB1 [15] was 0.252, the AEB2 [15] was 0.261 and the Average AEB [15] was 0.257. For the same substance, the Signal to Background [15] was 26.5, the AEB1 [16] was 0.013 and the AEB2 [16] was 0.018. It also gave an AEB3 [16] of 0.0134, an Average AEB [16] of 0.0148 and a Signal to Background [16] of 1.12. The AEB1 [17] was 0.589, the AEB2 [17] was 0.605 and the AEB3 [17] was 0.615. For the same substance, the Average AEB [17] was 0.603, the Signal to Background [17] was 4.92 and the AEB1 [18] was 0.0071. The AEB2 [18] was 0.0078, the Ave AEB [18] was 0.0074 and the Signal to Background [18] was 1.96. For the same substance, the AEB1 [19] was 0.0417, the AEB2 [19] was 0.0425 and the Average AEB [19] was 0.0421. For the same substance, the Signal to Background [19] was 7.34, the AEB1 [20] was 0.355 and the AEB2 [20] was 0.378. The AEB3 [20] was 0.358, the Average AEB [20] was 0.364 and the Signal to Background [20] was 9.26.
